Reference: patent US20230107644A1

Tests used:
[1] = target: H3 A/duck/Shantou/1283/2001 (Influenza A virus (A/duck/Shantou/1283/2001))
[2] = target: HA (H3) of influenza virus A/Wisconsin/67/2005 (influenza A virus A/Wisconsin/67/2005 (H3N2))
[3] = target: HA (H3) of influenza virus A/Brisbane/10/2007 (influenza A virus A/Brisbane/10/2007 (H3N2))
[4] = target: HA (H3) of influenza virus A/Perth/16/2009 (influenza A virus A/Perth/16/2009 (H3N2))
[5] = target: HA (H3) of influenza virus A/Wisconsin/67/2005 (influenza A virus A/Wisconsin/67/2005 (H3N2)); experiment: cell-based or functional assay
[6] = target: HA (H3) of influenza virus A/Brisbane/10/2007 (influenza A virus A/Brisbane/10/2007 (H3N2)); experiment: cell-based or functional assay
[7] = target: HA (H3) of influenza virus A/Uruguay/716/2007 (influenza A virus A/Uruguay/716/2007 (H3N2)); experiment: cell-based or functional assay
[8] = target: HA (H3) of influenza virus A/Perth/16/2009 (influenza A virus A/Perth/16/2009 (H3N2)); experiment: cell-based or functional assay
[9] = target: HA (H3) of influenza virus A/Texas/50/2012 (influenza A virus A/Texas/50/2012 (H3N2)); experiment: cell-based or functional assay
[10] = target: HA (H3) of influenza virus A/Victoria/361/2011 (influenza A virus A/Victoria/361/2011 (H3N2)); experiment: cell-based or functional assay
[11] = target: HA (H3) of influenza virus A/Switzerland/9715283/2013 (influenza A virus A/Switzerland/9715283/2013 (H3N2)); experiment: cell-based or functional assay
[12] = target: HA (H3) of influenza virus A/Victoria/210/2009 (influenza A virus A/Victoria/210/2009 (H3N2)); experiment: cell-based or functional assay
[13] = target: N2 A/shorebird/Delaware/127/1997 (Influenza A virus (A/shorebird/Delaware/127/1997))
[14] = target: NA (N2) of influenza virus A/Wisconsin/67/2005 (influenza A virus A/Wisconsin/67/2005 (H3N2))
[15] = target: NA (N2) of influenza virus A/Brisbane/10/2007 (influenza A virus A/Brisbane/10/2007 (H3N2))
[16] = target: NA (N2) of influenza virus A/Perth/16/2009 (influenza A virus A/Perth/16/2009 (H3N2)); experiment: cell-based or functional assay
[17] = target: NA (N2) of influenza virus A/Victoria/361/2011 (influenza A virus A/Victoria/361/2011 (H3N2)); experiment: cell-based or functional assay
[18] = target: NA (N2) of influenza virus A/Wisconsin/67/2005 (influenza A virus A/Wisconsin/67/2005 (H3N2)); experiment: cell-based or functional assay
[19] = target: NA (N2) of influenza virus A/Uruguay/716/2007 (influenza A virus A/Uruguay/716/2007 (H3N2)); experiment: cell-based or functional assay
[20] = target: NA (N2) of influenza virus A/Texas/50/2012 (influenza A virus A/Texas/50/2012 (H3N2)); experiment: cell-based or functional assay
[21] = target: NA (N2) of influenza virus A/Brisbane/10/2007 (influenza A virus A/Brisbane/10/2007 (H3N2)); experiment: cell-based or functional assay

Binder	ELISA area under curve (AUC) (H7 protein)	ELISA area under curve (AUC) [1]	ELISA area under curve (AUC) [2]	ELISA area under curve (AUC) [3]	ELISA area under curve (AUC) [4]	ELISA area under curve (AUC) (H1 protein)	NT50 [5] [µg/mL]	NT50 [6] [µg/mL]	NT50 [7] [µg/mL]	NT50 [8] [µg/mL]	NT50 [9] [µg/mL]	NT50 [10] [µg/mL]	NT50 [11] [µg/mL]	NT50 [12] [µg/mL]	ELISA area under curve (AUC) [13]	ELISA area under curve (AUC) [14]	ELISA area under curve (AUC) [15]	further results
1092E4 hmAb (antibody, V domains shown) VH: QVQLVQSGAEVKKPGASVKVSCKASGYSFTRYGISWVRQAPGQGLEWMGWISAYTGNTDYAQKFQGRITMTTDTSTSTVYMELRSLRSDDTAVYYCARDHPQGVVILGSYYYGMDVWGQGNTVTVSS VL: EIVLTQSPGTLSLSPGERATLSCRASQSVTSRYLAWYQQKLGQAPRLLIYGASSRATGIPDRFSGSGSGTDFTLTISSLEPEDFAVYYCQQSGSPRTFGQGTKVEIK	26	28.7	32.5	31.7	33.4	18.5	0.2	0.1	0.1	3.13	6.25	0.1	6.25	6.25	–	–	–	–
1092C4 hmAb (antibody, V domains shown) VH: EVQLVQSGAEVKKPGASVKVSCKASGYSFTRYGISWVRQAPGQGLEWMGWISAYTGNTDYAQKFQGRITMTTDTSTSTAYMELRSLRSDDTAVYYCARDLPQGVVILGSYYYGMDVWGQGNTVTVSS VL: EIVLTQSPGTLSLSPGERATLSCRASQSVTSRYLAWYQQKLGQAPRLLIYGASSRATGIPDRFSGSGSGTDFTLTISSLEPEDLAVYYCQQSGSPRTFGQGTKVEIK	27.3	34.4	33.7	32.3	31.4	9.8	1.6	0.1	0.2	3.13	6.25	0.1	0.78	6.25	–	–	–	–
1122A11 hmAb (antibody, V domains shown) VH: QVQLVQSGAEVSKPGASVKVSCKASGYSFTSQSLGWVRQAPGQGLEWMGIINPSGGITNYAHKFQGRVTMTRDTSTSTVYMELSSLRSEDTALYYCVRDLSHYNEVGHDRAYYYGMDIWGQGTTVTVSS VL: SYELIQPPSVSVSPGQTASITCSGDKLGKKYTCWYQQKPGQSPVLVIYQDNKRPSGIPERFSGSNSGNTATLTISGTQAMDEADYYCQAWDSSAVVFGGGTKLTVL	–	–	–	–	–	–	–	–	–	–	–	–	–	–	15.2	34.7	35.8	NT50 [16]: 0.2 µg/mL; NT50 [17]: 1.6 µg/mL; NT50 [18]: 25 µg/mL; NT50 [19]: 0.2 µg/mL; NT50 [20]: 3.13 µg/mL; NT50 [21]: 6.25 µg/mL
1086G8 hmAb (antibody, V domains shown) VH: EVQLLESGGGLVQPGGSLRLSCTASGFTFASDAMNWVRQAPGKGLEWVSAISGNGGITYFADSVKGRFTISRDNSKDTLYLQMDSLRAEDTAVYYCAKGVAPSHFNLLTGYYAGHYYFDFWGQGTLVTVSS VL: EIVMTQSPATLSVSPGERATLSCRASQSVRHNLAWYQHKPGQPPRLLIYGASTRAASVPARFSGSGSGTDFTLTISSLQSEDFAVYYCQQYNHWPPYTFGQGTKLEIK	25.2	31.4	33.7	31.2	28	11.4	3.13	0.4	0.4	6.25	6.25	0.2	12.5	12.5	–	–	–	–
1122B9 hmAb (antibody, V domains shown) VH: EVQLVESGGGLVQPGGSLRLSCAASGFTFSGYAMSWVRQAPGKGLECVSGIIGSGGSTYSADSVKGRFTISRDNSKNTLDLEMNSLRAEDTAVYYCAKHTKSHYYSGMGVWGQGTTVTVSS VL: DIQMTQSPSSLSASVGDRVTITCQASQDISNYLNWYQQRPGKAPKLLIYDAANLETGVPSRFSGSGSATQFTFTISGLQPEDFATYYCQQYDNLPLTFGGGTKVEIK	–	–	–	–	–	–	–	–	–	–	–	–	–	–	25.2	35.3	35.2	–
